The source of these data is US20230220115A1 (BIOMOLECULAR, published 2023).

As usually defined, the Kd is the equilibrium constant for the complex coming apart.

The labels stand for the following.
T1: CD19 (UniProt P15391 20-291)
T1 sequence (looked up): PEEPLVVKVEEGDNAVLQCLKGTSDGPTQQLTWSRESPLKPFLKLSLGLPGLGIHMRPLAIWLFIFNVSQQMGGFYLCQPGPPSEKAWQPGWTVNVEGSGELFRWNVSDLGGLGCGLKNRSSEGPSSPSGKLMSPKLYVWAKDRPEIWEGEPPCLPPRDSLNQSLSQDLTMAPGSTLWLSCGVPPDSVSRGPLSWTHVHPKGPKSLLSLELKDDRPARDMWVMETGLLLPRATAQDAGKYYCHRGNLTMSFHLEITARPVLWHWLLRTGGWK

T2: CD20 Lipoparticles (UniProt P11836 1-297)
T2 sequence (looked up): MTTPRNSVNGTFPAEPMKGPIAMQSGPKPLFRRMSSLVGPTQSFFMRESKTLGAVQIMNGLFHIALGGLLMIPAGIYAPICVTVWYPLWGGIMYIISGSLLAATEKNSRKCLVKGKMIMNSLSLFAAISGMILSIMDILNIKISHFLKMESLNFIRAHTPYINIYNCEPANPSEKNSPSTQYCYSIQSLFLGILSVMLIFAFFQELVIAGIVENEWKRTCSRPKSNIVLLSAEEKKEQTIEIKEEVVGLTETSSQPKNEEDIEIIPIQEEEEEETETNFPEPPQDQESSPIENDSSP

T3: recombinant human Fc gamma receptor CD32a 131R (human, UniProt P12318 36-218)
T3 sequence (looked up): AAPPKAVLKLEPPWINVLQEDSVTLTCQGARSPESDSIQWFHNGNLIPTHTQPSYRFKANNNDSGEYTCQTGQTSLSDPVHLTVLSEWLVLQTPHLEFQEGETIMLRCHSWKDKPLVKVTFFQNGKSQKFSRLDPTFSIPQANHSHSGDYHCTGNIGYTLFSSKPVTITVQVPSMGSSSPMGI

T4: recombinant human Fc gamma receptor CD32b/c (human, UniProt P31994 46-217)
T4 sequence (looked up): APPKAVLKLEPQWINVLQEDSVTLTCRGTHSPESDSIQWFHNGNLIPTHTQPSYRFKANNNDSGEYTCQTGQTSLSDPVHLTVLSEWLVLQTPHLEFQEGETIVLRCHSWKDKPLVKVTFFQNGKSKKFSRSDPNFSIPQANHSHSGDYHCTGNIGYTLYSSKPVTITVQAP

T5: recombinant human Fc gamma receptor CD32a 131H (human, UniProt P12318 36-218)
T5 sequence (looked up): T3 sequence (looked up) with R132H

B1: B19c66 (one-arm antibody) (antibody, human IgG1, kappa)
light: not shown
heavy: not shown
chain: CPPCPAPELLGGPSVFLFPPKPKDTLMISRTPEVTCVVVDVSHEDPEVKFNWYVDGVEVHNAKTKPREEQYNSTYRVVSVLTVLHQDWLNGKEYKCKVSNKALPAPIEKTISKAKGQPREPQVYVYPPSRDELTKNQVSLTCLVKGFYPSDIAVEWESNGQPENNYKTTPPVLDSDGSFALVSKLTVDKSRWQQGNVFSCSVMHEALHNHYTQKSLSLSPGK
B2: B19c66AAC9 (one-arm antibody) (antibody, human IgG1, kappa)
light: not shown
heavy: QVQLQQSGAELVRPGSSVKISCKASGYAFSSYWMNWVKQRPGQGLEWIGQIWPGDGDTNYNGKFKGKATLTADESSSTAYMQLSSLASEDSAVYFCARRETTTVGRYYYAMDYWGQGTTVTVSSASTKGPSVFPLAPSSKSTSGGTAALGCLVKDYFPEPVTVSWNSGALTSGVHTFPAVLQSSGLYSLSSVVTVPSSSLGTQTYICNVNHKPSNTKVDKKVEPKSCDKTHTCPPCPAPKRRGGPSVFLFPPKPKDTLMISRTPEVTCVVVDVSHEDPEVKFNWYVDGVEVHNAKTKPREEQYNSTYRVVSVLTVLHQDWLNGKEYKCKVSNKALPAPIEKTISKAKGQPREPQVYVLPPSRDELTKNQVSLLCLVKGFYPSDIAVEWESNGQPENNYLTWPPVLDSDGSFFLYSKLTVDKSRWQQGNVFSCSVMHEALHNHYTQKSLSLSPGK
chain: B1 chain with L9D, L10E
B3: Rc66SIDE (One-arm antibody) (antibody, human IgG1, kappa)
light: QIVLSQSPAILSASPGEKVTMTCRASSSVSYIHWFQQKPGSSPKPWIYATSNLASGVPVRFSGSGSGTSYSLTISRVEAEDAATYYCQQWTSNPPTFGGGTKLEIKRTVAAPSVFIFPPSDEQLKSGTASVVCLLNNFYPREAKVQWKVDNALQSGNSQESVTEQDSKDSTYSLSSTLTLSKADYEKHKVYACEVTHQGLSSPVTKSFNRGEC
heavy: QVQLQQPGAELVKPGASVKMSCKASGYTFTSYNMHWVKQTPGRGLEWIGAIYPGNGDTSYNQKFKGKATLTADKSSSTAYMQLSSLTSEDSAVYYCARSTYYGGDWYFNVWGAGTTVTVSAASTKGPSVFPLAPSSKSTSGGTAALGCLVKDYFPEPVTVSWNSGALTSGVHTFPAVLQSSGLYSLSSVVTVPSSSLGTQTYICNVNHKPSNTKVDKKAEPKSCDKTHTCPPCPAPELLGGPDVFLFPPKPKDTLMISRTPEVTCVVVDVSHEDPEVKFNWYVDGVEVHNAKTKPREEQYNSTYRVVSVLTVLHQDWLNGKEYKCKVSNKALPAPEEKTISKAKGQPREPQVYVLPPSRDELTKNQVSLLCLVKGFYPSDIAVEWESNGQPENNYLTWPPVLDSDGSFFLYSKLTVDKSRWQQGNVFSCSVMHEALHNHYTQKSLSLSPGK
chain: B1 chain with S14D, I107E
B4: Rc66SIDE-P16-Rc66SIDE (antibody, human IgG1, kappa)
light: B3 light
heavy: B3 heavy
chain: B1 chain with S14D, I107E
B5: Rc66SIDE-P4-Rc66SIDE (antibody, human IgG1, kappa)
light: B3 light
heavy: B3 heavy
chain: B1 chain with S14D, I107E
B6: Rc66SIDE-P28-Rc66SIDE (antibody, human IgG1, kappa)
light: B3 light
heavy: B3 heavy
chain: B1 chain with S14D, I107E

Residue numbers refer to the chain shown, from its start.

recombinant human Fc gamma receptor CD16a 158F (FcRγIIIa), sequence (P08637 17-208 limits assumed): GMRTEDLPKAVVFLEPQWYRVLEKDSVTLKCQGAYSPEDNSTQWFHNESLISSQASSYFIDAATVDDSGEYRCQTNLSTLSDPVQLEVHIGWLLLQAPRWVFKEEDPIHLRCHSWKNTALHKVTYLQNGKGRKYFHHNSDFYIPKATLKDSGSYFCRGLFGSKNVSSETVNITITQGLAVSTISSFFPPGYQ
recombinant human Fc gamma receptor CD64 (FcRγI), sequence (P12314 16-288 limits assumed): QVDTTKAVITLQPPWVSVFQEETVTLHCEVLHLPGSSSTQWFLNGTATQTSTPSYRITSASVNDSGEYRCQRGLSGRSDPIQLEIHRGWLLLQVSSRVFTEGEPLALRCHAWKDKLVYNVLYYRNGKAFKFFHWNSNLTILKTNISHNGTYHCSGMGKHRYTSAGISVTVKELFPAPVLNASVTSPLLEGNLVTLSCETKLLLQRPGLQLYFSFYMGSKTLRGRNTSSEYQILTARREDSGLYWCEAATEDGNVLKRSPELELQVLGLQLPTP
recombinant human Fc gamma receptor CD16b (FcRγIIIb), sequence (O75015 17-200 limits assumed): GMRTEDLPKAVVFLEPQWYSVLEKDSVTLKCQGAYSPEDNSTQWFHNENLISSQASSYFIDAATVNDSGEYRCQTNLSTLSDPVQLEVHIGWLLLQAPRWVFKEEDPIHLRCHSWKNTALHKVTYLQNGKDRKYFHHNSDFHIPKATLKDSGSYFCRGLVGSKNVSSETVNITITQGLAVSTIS

For one test, the target named is T1, CD19.
As to B1, the Kd is 21.8 nM.
Still for that read-out and setting: the figure for B2 is 21 nM.

A further test deals with T2, CD20 Lipoparticles.
B3 gave a Kd of 21.4 nM.
Same read-out and setting: as for B4, the figure is < 0.001 nM.
On the same count and under the same terms, as for B5, the figure is < 0.001 nM; as for B6, < 0.001 nM.

The target of a further test is T6, recombinant human Fc gamma receptor CD16a 158V (FcRγIIIa) (human, UniProt P08637 17-208).
T6 sequence (P08637 17-208 F176V limits assumed): as the sequence (P08637 17-208 limits assumed) above, with F160V counted along it
For B1, the Kd was determined as 234 nM.

The next test concerns the target recombinant human Fc gamma receptor CD64 (FcRγI) (human, UniProt P12314 16-288).
Regarding B4, the dissociation constant Kd was < 0.001 nM.
Same read-out and setting: as for B5, the figure is < 0.001 nM; as for B6, 1.14 nM.

The next test addresses recombinant human Fc gamma receptor CD16b (FcRγIIIb) (human, UniProt O75015 17-200).
With B3, the Kd was found to be 163 nM.
Same read-out and setting: the figure for B4 is < 0.001 nM; for B5 it is 1.05 nM.
On to B6, for which the Kd amounted to 5.64 nM.

In a further test the target is T3, recombinant human Fc gamma receptor ….
B3: the dissociation constant (Kd) worked out at 202 nM.
On the same count and under the same terms, as for B4, the figure is 1.83 nM; as for B5, 4.93 nM.
As for B6, the dissociation constant (Kd) turned out to be 8.11 nM.

The target in another test is T4, recombinant human Fc gamma receptor ….
As to B3, the Kd is 253 nM.
On the same count and under the same terms, as for B4, the figure is 0.556 nM.
Still for that read-out and setting: as for B5, the figure is 3.17 nM.
On the same count and under the same terms, as for B6, the figure is 7.28 nM.

Another test has as its target recombinant human Fc gamma receptor CD16a 158F (FcRγIIIa) (human, UniProt P08637 17-208).
As to B3, the Kd came to 76.8 nM.
On the same count and under the same terms, as for B4, the figure is 2.71 nM; as for B5, 3.87 nM.
On the same count and under the same terms, as for B6, the figure is 6.62 nM.

In the next test the target is T6, recombinant human Fc gamma receptor …. The source holds these as a separate data set.
As for B3, the Kd came to 46.2 nM.
Same read-out and setting: as for B4, the figure is 0.257 nM; as for B5, 1.14 nM.
Consider B6, for which the Kd came out at 4.98 nM.

A further test concerns the target T5, recombinant human Fc gamma receptor ….
Consider B3, for which the dissociation constant (Kd) is 255 nM.
Still for that read-out and setting: the figure for B4 is 0.808 nM.
Same read-out and setting: the figure for B5 is 2.54 nM.
Still for that read-out and setting: the figure for B6 is 5.42 nM.
